Laboratory results: the Human Domainome abundance scans (Beltran et al. 2025)
± gives the uncertainty stated by the source.

B1: POU domain, class 3, transcription factor 3, residues 320 to 388; numbered along this chain, P20264 (parent)
chain: DDLEQFAKQFKQRRIKLGFTQADVGLALGTLYGNVFSQTTICRFEALQLSFKNMCKLKPLLNKWLEEAD

Variants of: B1
Test: abundance fitness (aPCA) (normalised: wild type 0, dead -1); higher = more abundant; growth selection in yeast, the domain comes from the species named
Settings: Homo sapiens

| Variant | abundance fitness |
| --- | --- |
| DRLEQFAKQFKQRRIKLGFTQADVGLALGTLYGNVFSQTTICRFEALQLSFKNMCKLKPLLNKWLEEAD [D2R] | -0.176 ± 0.089 |
| DWLEQFAKQFKQRRIKLGFTQADVGLALGTLYGNVFSQTTICRFEALQLSFKNMCKLKPLLNKWLEEAD [D2W] | -0.111 ± 0.13 |
| DLLEQFAKQFKQRRIKLGFTQADVGLALGTLYGNVFSQTTICRFEALQLSFKNMCKLKPLLNKWLEEAD [D2L] | -0.272 ± 0.14 |
| DMLEQFAKQFKQRRIKLGFTQADVGLALGTLYGNVFSQTTICRFEALQLSFKNMCKLKPLLNKWLEEAD [D2M] | -0.252 ± 0.14 |
| DQLEQFAKQFKQRRIKLGFTQADVGLALGTLYGNVFSQTTICRFEALQLSFKNMCKLKPLLNKWLEEAD [D2Q] | -0.159 ± 0.13 |
| DGLEQFAKQFKQRRIKLGFTQADVGLALGTLYGNVFSQTTICRFEALQLSFKNMCKLKPLLNKWLEEAD [D2G] | -0.224 ± 0.081 |
| DSLEQFAKQFKQRRIKLGFTQADVGLALGTLYGNVFSQTTICRFEALQLSFKNMCKLKPLLNKWLEEAD [D2S] | -0.119 ± 0.3 |
| DELEQFAKQFKQRRIKLGFTQADVGLALGTLYGNVFSQTTICRFEALQLSFKNMCKLKPLLNKWLEEAD [D2E] | -0.031 ± 0.049 |
| DALEQFAKQFKQRRIKLGFTQADVGLALGTLYGNVFSQTTICRFEALQLSFKNMCKLKPLLNKWLEEAD [D2A] | 0.107 ± 0.16 |
| DILEQFAKQFKQRRIKLGFTQADVGLALGTLYGNVFSQTTICRFEALQLSFKNMCKLKPLLNKWLEEAD [D2I] | -0.238 ± 0.15 |
| DVLEQFAKQFKQRRIKLGFTQADVGLALGTLYGNVFSQTTICRFEALQLSFKNMCKLKPLLNKWLEEAD [D2V] | -0.95 ± 0.5 |
| DPLEQFAKQFKQRRIKLGFTQADVGLALGTLYGNVFSQTTICRFEALQLSFKNMCKLKPLLNKWLEEAD [D2P] | -0.339 ± 0.23 |
| DDVEQFAKQFKQRRIKLGFTQADVGLALGTLYGNVFSQTTICRFEALQLSFKNMCKLKPLLNKWLEEAD [L3V] | -0.318 ± 0.11 |
| DDPEQFAKQFKQRRIKLGFTQADVGLALGTLYGNVFSQTTICRFEALQLSFKNMCKLKPLLNKWLEEAD [L3P] | -0.755 ± 0.24 |
| DDTEQFAKQFKQRRIKLGFTQADVGLALGTLYGNVFSQTTICRFEALQLSFKNMCKLKPLLNKWLEEAD [L3T] | -0.981 ± 0.33 |
| DDYEQFAKQFKQRRIKLGFTQADVGLALGTLYGNVFSQTTICRFEALQLSFKNMCKLKPLLNKWLEEAD [L3Y] | -0.242 ± 0.2 |
| DDGEQFAKQFKQRRIKLGFTQADVGLALGTLYGNVFSQTTICRFEALQLSFKNMCKLKPLLNKWLEEAD [L3G] | -0.758 ± 0.18 |
| DDFEQFAKQFKQRRIKLGFTQADVGLALGTLYGNVFSQTTICRFEALQLSFKNMCKLKPLLNKWLEEAD [L3F] | -0.454 ± 0.49 |
| DDAEQFAKQFKQRRIKLGFTQADVGLALGTLYGNVFSQTTICRFEALQLSFKNMCKLKPLLNKWLEEAD [L3A] | -1 ± 0.32 |
| DDREQFAKQFKQRRIKLGFTQADVGLALGTLYGNVFSQTTICRFEALQLSFKNMCKLKPLLNKWLEEAD [L3R] | -0.937 ± 0.19 |
| DDWEQFAKQFKQRRIKLGFTQADVGLALGTLYGNVFSQTTICRFEALQLSFKNMCKLKPLLNKWLEEAD [L3W] | -0.587 ± 0.17 |
| DDEEQFAKQFKQRRIKLGFTQADVGLALGTLYGNVFSQTTICRFEALQLSFKNMCKLKPLLNKWLEEAD [L3E] | -0.43 ± 0.31 |

| Variant | abundance fitness |
| --- | --- |
| DDIEQFAKQFKQRRIKLGFTQADVGLALGTLYGNVFSQTTICRFEALQLSFKNMCKLKPLLNKWLEEAD [L3I] | -0.161 ± 0.27 |
| DDQEQFAKQFKQRRIKLGFTQADVGLALGTLYGNVFSQTTICRFEALQLSFKNMCKLKPLLNKWLEEAD [L3Q] | -0.421 ± 0.38 |
| NDLEQFAKQFKQRRIKLGFTQADVGLALGTLYGNVFSQTTICRFEALQLSFKNMCKLKPLLNKWLEEAD [D1N] | 0.529 ± 0.33 |
| DDLEQFADQFKQRRIKLGFTQADVGLALGTLYGNVFSQTTICRFEALQLSFKNMCKLKPLLNKWLEEAD [K8D] | -0.705 ± 0.48 |
| DDLEQFAEQFKQRRIKLGFTQADVGLALGTLYGNVFSQTTICRFEALQLSFKNMCKLKPLLNKWLEEAD [K8E] | -0.019 ± 0.14 |
| DDLEQFAAQFKQRRIKLGFTQADVGLALGTLYGNVFSQTTICRFEALQLSFKNMCKLKPLLNKWLEEAD [K8A] | 0.001 ± 0.11 |
| DDLEQFAFQFKQRRIKLGFTQADVGLALGTLYGNVFSQTTICRFEALQLSFKNMCKLKPLLNKWLEEAD [K8F] | -0.439 ± 0.33 |
| DDLEQFAGQFKQRRIKLGFTQADVGLALGTLYGNVFSQTTICRFEALQLSFKNMCKLKPLLNKWLEEAD [K8G] | -0.561 ± 0.14 |
| DDLEQFSKQFKQRRIKLGFTQADVGLALGTLYGNVFSQTTICRFEALQLSFKNMCKLKPLLNKWLEEAD [A7S] | 0.117 ± 0.11 |
| DDLEQFTKQFKQRRIKLGFTQADVGLALGTLYGNVFSQTTICRFEALQLSFKNMCKLKPLLNKWLEEAD [A7T] | -0.069 ± 0.24 |
| DDLEQFMKQFKQRRIKLGFTQADVGLALGTLYGNVFSQTTICRFEALQLSFKNMCKLKPLLNKWLEEAD [A7M] | -0.737 ± 0.19 |
| DDLEQFPKQFKQRRIKLGFTQADVGLALGTLYGNVFSQTTICRFEALQLSFKNMCKLKPLLNKWLEEAD [A7P] | -0.722 ± 0.32 |
| DDLEQFCKQFKQRRIKLGFTQADVGLALGTLYGNVFSQTTICRFEALQLSFKNMCKLKPLLNKWLEEAD [A7C] | -0.198 ± 0.065 |
| DDLEQFLKQFKQRRIKLGFTQADVGLALGTLYGNVFSQTTICRFEALQLSFKNMCKLKPLLNKWLEEAD [A7L] | -0.908 ± 0.36 |
| DDLEQFFKQFKQRRIKLGFTQADVGLALGTLYGNVFSQTTICRFEALQLSFKNMCKLKPLLNKWLEEAD [A7F] | -0.642 ± 0.2 |
| DDLEQFQKQFKQRRIKLGFTQADVGLALGTLYGNVFSQTTICRFEALQLSFKNMCKLKPLLNKWLEEAD [A7Q] | -0.703 ± 0.23 |
| DDLEQFRKQFKQRRIKLGFTQADVGLALGTLYGNVFSQTTICRFEALQLSFKNMCKLKPLLNKWLEEAD [A7R] | -0.69 ± 0.15 |
| DDLEQFIKQFKQRRIKLGFTQADVGLALGTLYGNVFSQTTICRFEALQLSFKNMCKLKPLLNKWLEEAD [A7I] | -0.057 ± 0.11 |
| DDLEQFWKQFKQRRIKLGFTQADVGLALGTLYGNVFSQTTICRFEALQLSFKNMCKLKPLLNKWLEEAD [A7W] | -0.87 ± 0.31 |
| DDLEQFDKQFKQRRIKLGFTQADVGLALGTLYGNVFSQTTICRFEALQLSFKNMCKLKPLLNKWLEEAD [A7D] | -0.694 ± 0.27 |
| DDLEQFGKQFKQRRIKLGFTQADVGLALGTLYGNVFSQTTICRFEALQLSFKNMCKLKPLLNKWLEEAD [A7G] | -0.478 ± 0.11 |
| DDLEQFVKQFKQRRIKLGFTQADVGLALGTLYGNVFSQTTICRFEALQLSFKNMCKLKPLLNKWLEEAD [A7V] | -0.065 ± 0.068 |
